No end group written: not given here. *: point of attachment. Butanoyl(4-pyren-1-yl) = O=C(CCCc1ccc2ccc3cccc4ccc1c2c34)*
Legend:
Type in all cases: physicochemical
[1] = Atomic force microscopy (AFM) of the amphiphilic peptide
Description: The amphiphilic peptide prepared in Preparation Example was subjected to atomic force microscopic (AFM) measurement. Atomic force microscopic scanning was made at 1.2-1.5 V with 0.5 Hz. The result is shown in FIGS. 15a-15b and FIGS. 16a-16b.
FIGS. 15a and 15b show atomic force microscopic (AFM) images of 2.5 μM of the amphiphilic peptide dissolved in water. FIG. 15a is a height image and FIG. 15b is a phase image.
FIGS. 16a and 16b show atomic force microscopic (AFM) images of 1 μM of the amphiphilic peptide dissolved in a 150 mM KF solution. FIG. 16a is a height image and FIG. 16b is a phase image.

[2] = Circular dichroism (CD) spectroscopy of the amphiphilic peptide depending on ionic strength and pH; conditions: for [θ]222/[θ]208 (degree of α-helix stabilization): 4° C., 1 μM peptide
Description: Circular dichroism (CD) spectroscopic analysis was performed as follows in order to investigate the dependence of the conformation of the amphiphilic peptide prepared in Preparation Example on ionic strength.
CD spectra were recorded using the Chirascan circular dichroism spectrometer equipped with a Peltier thermostat. The spectra were recorded between 260 nm and 190 nm using a 2-mm path cuvette. 10 scans were averaged. Also, molar ellipticity per amino acid residue was calculated. The peptide concentration was 1 μM unless specified otherwise and the sample solution incubated at least for a day before the measurement.
In the graph, ∘ indicates the peptide dissolved in water, and • indicates the peptide dissolved in 150 mM KF. In Test Example 1, the measurement of the samples was measured at 4° C.

[3] = Fluorescence spectroscopy of the amphiphilic peptide in water or 150 mM KF (pyrene excimer); conditions: 0.25-20 μM peptide
Description: The amphiphilic peptide prepared in Preparation Example was subjected to fluorescence spectroscopic measurement after dissolving in water or a 150 mM KF solution. Details are as follows.
Fluorescence spectra were measured using the LS55 fluorescence spectrometer (PerkinElmer). Pyrene was excited at 341 nm and the emission spectra were recorded in the range of 360-550 nm. The solid (-) curve indicates the amphiphilic peptide dissolved in 150 mM KF and the dotted ( . . . ) curve indicates the amphiphilic peptide dissolved in water.
Also, emission spectra were measured after dissolving 0.25-20 μM of the amphiphilic peptide prepared in Preparation Example in water (a) or a KF solution (b).

Substance: amphiphilic peptide prepared in Preparation Example: hairpin-shaped amphiphilic peptide derived from HIV-1 rev protein (Rev12-64) with a pyrene group bound to the N-terminal via pyrenebutyric acid ({Butanoyl(4-pyren-1-yl)}-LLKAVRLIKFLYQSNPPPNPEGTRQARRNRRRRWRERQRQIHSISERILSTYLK)
- particle diameter of globular nanostructures ([1]; 1 μM peptide in 150 mM KF, AFM): 20-50 nm
- state of the peptide by AFM ([1]; 2.5 μM peptide in water): exists mostly in monomer form
- [θ]222/[θ]208 (degree of α-helix stabilization) ([2]; 150 mM KF (increased ionic strength)): 0.71
- solubility depending on pH ([2]; CD analysis, FIG. 12): solubility decreases gradually as the pH increases
- [θ]222/[θ]208 (degree of α-helix stabilization) ([2]; in water): 0.31
- excimer peak of pyrene (self-assembly) ([3]; dissolved in pure water): no excimer peak of pyrene was observed
- excimer peak of pyrene (self-assembly) ([3]; ionic strength 150 mM (KF)): the excimer peak of pyrene was observed
